Measurements published in paper PMC3999280.

Assays:
[1] = target: LdtRLas (LdtR from 'Candidatus Liberibacter asiaticus', […]_01180) ('Candidatus Liberibacter asiaticus' str. psy62); assay: SEC
[2] = target: LdtRLas ('Candidatus Liberibacter asiaticus') (UniProt A0ABN4AZS1); assay: EMSA; conditions: EMSA: 50 mM Tris-HCl pH 7.2, 150 mM KCl, 10 mM MgCl2, 0.01% Triton X-100, 12.5 ng/uL each poly(dI-dC) and poly(dA-dT), 1 ng probe in 20 uL, 20 min at 37 C; 6% …

Substance | stoichiometry N [1] | K half [2]
LdtRLas (LdtR from 'Candidatus Liberibacter asiaticus', […]_01180) (natural protein) | 2 | –
PldtP (PldtPLas) | – | 100 nM
